T1: IL1RL2 over-expressed on Expi293 cells (UniProt Q9HB29 20-575, limits assumed)
T1 construct: whole, on cells; Target of the flow cytometry assay; MFI ratio is over-expressing cells over parent cells
T1 sequence (looked up): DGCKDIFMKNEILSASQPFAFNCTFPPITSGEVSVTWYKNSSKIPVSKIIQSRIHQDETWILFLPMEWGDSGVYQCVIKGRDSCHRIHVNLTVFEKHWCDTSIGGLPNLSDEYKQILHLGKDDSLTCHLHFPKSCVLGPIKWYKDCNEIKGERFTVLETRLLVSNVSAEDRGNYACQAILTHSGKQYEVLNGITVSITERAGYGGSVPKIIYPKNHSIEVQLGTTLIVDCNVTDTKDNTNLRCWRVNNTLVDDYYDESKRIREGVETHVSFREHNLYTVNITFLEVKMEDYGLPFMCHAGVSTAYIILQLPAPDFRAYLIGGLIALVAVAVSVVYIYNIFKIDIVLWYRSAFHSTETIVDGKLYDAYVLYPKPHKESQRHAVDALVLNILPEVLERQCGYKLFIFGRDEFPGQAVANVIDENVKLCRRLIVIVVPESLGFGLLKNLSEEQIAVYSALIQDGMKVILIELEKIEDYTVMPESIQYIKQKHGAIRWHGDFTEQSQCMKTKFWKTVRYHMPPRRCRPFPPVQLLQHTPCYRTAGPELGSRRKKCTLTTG


biological target: T1, IL1RL2 over-expressed on Expi293 cells; experiment: flow cytometry, over-expressing Expi293 vs parent cells, 100 nM antibody;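 also: ratio is mean fluorescence intensity on over-expressing Expi293 cells divided by that measured on parental Expi293 cells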
Procedure: All incubations and washes were in buffer containing PBS+1% BSA. MFI Ratio is defined by the mean fluorescence intensity (MFI) of the cytokine over-expressing Expi293 cell over the Expi293 parent cell. […] EC50 was calculated in GraphPad Prism.

Binder | 100 nM FACS (MFI Ratio)
IL1RL2-167 (antibody, V domains shown, IgG2) VH: EVQLLESGGGLVQPGGSLRLSCAASGFTFSNYGVSWVRQAPGKGLEWVSGITRSGSTNYRDSVKGRFTISRDNSKNTLYLQMNSLRAEDTAVYYCAKGRRIFDYWGQGTLVTVSS VL: DIQMTQSPSSLSASVGDRVTITCSGDKLGHTYTSWYQQKPGKAPKLLIYGKKNRPSGVPSRFSGSGSGTDFTLTISSLQPEDFATYYCQQSYSTPGITFGQGTKVEIK | 3.08
IL1RL2-170 (antibody, V domains shown, IgG2) VH: EVQLLESGGGLVQPGGSLRLSCAASGFTFPVYNMAWVRQAPGKGLEWVSSISGYGSTTYYADSVKGRFTISRDNSKNTLYLQMNSLRAEDTAVYYCAKSYGAFDYWGQGTLVTVSS VL: DIQMTQSPSSLSASVGDRVTITCSASQDINKYLNWYQQKPGKAPKLLIYHTSRLQDGVPSRFSGSGSGTDFTLTISSLQPEDFATYYCQQSYTTPWTFGQGTKVEIK | 3.95
IL1RL2-173 (antibody, V domains shown, IgG2) VH: EVQLLESGGGLVQPGGSLRLSCAASGFTFSEYGMWWVRQAPGKGLEWVSEISPSGGYTYYADSVKGRFTISRDNSKNTLYLQMNSLRAEDTAVYYCAEQDVKGSSSFDYWGQGTLVTVSS VL: DIQMTQSPSSLSASVGDRVTITCRPNQNIATYINWYQQKPGKAPKLLIYQMSHLASGVPSRFSGSGSGTDFTLTISSLQPEDFATYYCQQSYSTPSFGQGTKVEIK | 11.2
IL1RL2-176 (antibody, V domains shown, IgG2) VH: EVQLLESGGGLVQPGGSLRLSCAASGFTFSNSYISWVRQAPGKGLEWVSSIRGSSSSTYYADSVKGRFTISRDNSKNTLYLQMNSLRAEDTAVYYCARSYGGGFDYWGQGTLVTVSS VL: DIQMTQSPSSLSASVGDRVTITCSGDNLRGYYASWYQQKPGKAPKLLIYQNDKRPSGVPSRFSGSGSGTDFTLTISSLQPEDFATYYCFQGSHAPLTFGQGTKVEIK | 0.72
IL1RL2-178 (antibody, V domains shown, IgG2) VH: EVQLLESEGGLVQPGGSLRLSCAASGFTFSGYDMQWVRQAPGKGLEWVSSISSTGFKTYYADSVKGRFTISRDNSKNTLYLQMNSLRAEDTAVYYCAKAGPPFAGSRGNSFDYWGQGTLVTVSS VL: DIQMTQSPSSLSASVGDRVTITCSGDNLRGYYASWYQQKPGKAPKLLIYGTSDLQSGVPSRFSGSGSGTDFTLTISSLQPEDFATYYCYSRDRSGNHLGMFGQGTKVEIK | 37
IL1RL2-181 (antibody, V domains shown, IgG2) VH: EVQLLESGGGLVQPGGSLRLSCAASGFTFGQESMYWVRQAPGKGLEWVSGITRSGSTNYRDSVKGRFTISRDNSKNTLYLQMNSLRAEDTAVYYCAKQLGEEFDYWGQGTLVTVSS VL: DIQMTQSPSSLSASVGDRVTITCTGDKLAEKYVSWYQQKPGKAPKLLIYAKNNRPSGVPSRFSGSGSGTDFTLTISSLQPEDFATYYCQQWSSNPLTFGQGTKVEIK | 1.02
IL1RL2-184 (antibody, V domains shown, IgG2) VH: EVQLLESGGGLVQPGGSLRLSCAASGFTFSDYDMSWVRQAPGKGLEWVSSISPSGGWTEYADSVKGRFTISRDNSKNTLYLQMNSLRAEDTAVYYCARHDYSNYPYFDYWGQGTLVTVSS VL: DIQMTQSPSSLSASVGDRVTITCRASQTIGDYLNWYQQKPGKAPKLLIYTASNLQNGVPSRFSGSGSGTDFTLTISSLQPEDFATYYCQQGFSNPWTFGQGTKVEIK | 3.19
IL1RL2-185 (antibody, V domains shown, IgG2) VH: EVQLLESGGGLVQPGGSLRLSCAASGFTFDKYLMSWVRQAPGKGLEWVSAISGRGDNTYYADSVKGRFTISRDNSKNTLYLQMNSLRAEDTAVYYCARGGDTYFDYFDYWGQGTLVTVSS VL: DIQMTQSPSSLSASVGDRVTITCRASQSIRRFLNWYQQKPGKAPKLLIYQASSLQSGVPSRFSGSGSGTDFTLTISSLQPEDFATYYCQQSHSSPLTFGQGTKVEIK | 205
IL1RL2-283 (antibody, V domains shown, IgG2) VH: EVQLLESGGGLVQPGGSLRLSCAASGFAFRSYAMSWVRQAPGKGLEWVSAITGSGTSTYYADSVKGRFTISRDNSKNTLYLQMNSLRAEDTAVYYCARDILWNYRVADYWGQGTLVTVSS VL: DIQMTQSPSSLSASVGDRVTITCRASLSISRYLNWYQQKPGKAPKLLIYTASSLHSGVPSRFSGSGSGTDFTLTISSLQPEDFATYYCQQSYRTPPWTFGGGTKVEIK | 3.98
IL1RL2-290 (antibody, V domains shown, IgG2) VH: EVQLLESGGGLVQPGGSLRLSCAASGFAFRSYAMSWVRQAPGKGLEWVSAITGSGTSTYYADSVKGRFTISRDNSKNTLYLQMNSLRAEDTAVYYCARDILWNYHVADYWGQGTLVTVSS VL: DIQMTQSPSSLSASVGDRVTITCRASLSISRYLNWYQQKPGKAPKLLIYTASSLHSGVPSRFSGSGSGTDFTLTISSLQPEDFATYYCQQSYRTPPWTFGGGTKVEIK | 8.4
IL1RL2-284 (antibody, V domains shown, IgG2) VH: EVQLLESGGGLVQPGGSLRLSCAASGFTFTSHAMSWVRQAPGKGLEWVSGISGSGANTYYADSVKGRFTISRDNSKNTLYLQMNSLRAEDTAVYYCARDGIVVVPAANHSYYYYYGMDVWGQGTLVTVSS VL: DIQMTQSPSSLSASVGDRVTITCRASQSISVHLNWYQQKPGKAPKLLIYIASNLQSGVPSRFSGSGSGTDFTLTISSLQPEDFATYYCQQTYTTPYTFGGGTKVEIK | 8.71
IL1RL2-289 (antibody, V domains shown, IgG2) VH: EVQLLESGGGLVQPGGSLRLSCAASGFTFTKYAMSWVRQAPGKGLEWVSGISGSGGYTYYADSVKGRFTISRDNSKNTLYLQMNSLRAEDTAVYYCARGAGSPDYWGQGTLVTVSS VL: DIQMTQSPSSLSASVGDRVTITCRASQNIRSYLNWYQQKPGKAPKLLIYATSNLQRGVPSRFSGSGSGTDFTLTISSLQPEDFATYYCQQSYRAPYIFGGGTKVEIK | 5.31
IL1RL2-292 (antibody, V domains shown, IgG2) VH: EVQLLESGGGLVQPGGSLRLSCAASGLTFNNYAMSWVRQAPGKGLEWVSGISGSSGNTYYVDSVKGRFTISRDNSKNTLYLQMNSLRAEDTAVYYCARGPNHGMFDAWGQGTLVTVSS VL: DIQMTQSPSSLSASVGDRVTITCRASQSIGYYLNWYQQKPGKAPKLLIYSATSLQSGVPSRFSGSGSGTDFTLTISSLQPEDFATYYCQHRGTFGGGTKVEIK | 11.7
IL1RL2-293 (antibody, V domains shown, IgG2) VH: EVQLLESGGGLVQPGGSLRLSCAASGFTISNYAMSWVRQAPGKGLEWVSGISGSGSSTFYADSVKGRFTISRDNSKNTLYLQMNSLRAEDTAVYYCAKPDSGQWWGVDQWGQGTLVTVSS VL: DIQMTQSPSSLSASVGDRVTITCRASQSIGNYVNWYQQKPGKAPKLLIYAASNLEDGVPSRFSGSGSGTDFTLTISSLQPEDFATYYCQQSYNTPLTFGGGTKVEIK | 10.2
IL1RL2-295 (antibody, V domains shown, IgG2) VH: EVQLLESGGGLVQPGGSLRLSCAASGFSFTTYAMSWVRQAPGKGLEWVSGISGGGGSTYYADSVKGRFTISRDNSKNTLYLQMNSLRAEDTAVYYCAKLVLSNRGGVDYWGQGTLVTVSS VL: DIQMTQSPSSLSASVGDRVTITCRASQSIRSHLNWYQQKPGKAPKLLIYRASTLQTGVPSRFSGSGSGTDFTLTISSLQPEDFATYYCQQSYSILPVTFGGGTKVEIK | 3.07
IL1RL2-296 (antibody, V domains shown, IgG2) VH: EVQLLESGGGLVQPGGSLRLSCAASGFIFSNFAMSWVRQAPGKGLEWVSGISGSGSSTNYADSVKGRFTISRDNSKNTLYLQMNSLRAEDTAVYYCARGFWSGYYGMDVWGQGTLVTVSS VL: DIQMTQSPSSLSASVGDRVTITCRASRSISTYLNWYQQKPGKAPKLLIYAASSSQSGVPSRFSGSGSGTDFTLTISSLQPEDFATYYCQQTYATPWTFGGGTKVEIK | 19.9
IL1RL2-297 (antibody, V domains shown, IgG2) VH: EVQLLESGGGLVQPGGSLRLSCAASGFTFRSHAMSWVRQAPGKGLEWVSALSGSGGRTYYADSVKGRFTISRDNSKNTLYLQMNSLRAEDTAVYYCASSGAGVSDYWGQGTLVTVSS VL: DIQMTQSPSSLSASVGDRVTITCRASQSIDTNLNWYQQKPGKAPKLLIYAASNLQHGVPSRFSGSGSGTDFTLTISSLQPEDFATYYCQQSSSIPLTFGGGTKVEIK | 7.44
IL1RL2-301 (antibody, V domains shown, IgG2) VH: EVQLLESGGGLVQPGGSLRLSCAASGFPLSSYAMSWVRQAPGKGLEWVSLISGSGVSTYYADSVKGRFTISRDNSKNTLYLQMNSLRAEDTAVYYCARGWGAAEEWGQGTLVTVSS VL: DIQMTQSPSSLSASVGDRVTITCRASQSVSYYLNWYQQKPGKAPKLLIYGAVNLQSGVPSRFSGSGSGTDFTLTISSLQPEDFATYYCQQSHTIPYTFGQGTKVEIK | 11.7

From patent publication US20230265179A1 (TWIST BIOSCIENCE, published 2023)
